Publication PMC5591277, “Usb1 controls U6 snRNP assembly through evolutionarily divergent cyclic phosphodiesterase activities”

Key:
Lsm2-8 complex [1] = biological target: T1, Lsm2-8 complex (Saccharomyces cerevisiae, UniProt P38203;P57743;P40070;P40089;Q06406;P53905;P47093 …); assay: fluorescence polarization; Hill 1.0; EMSA: 5 nM Cy3-U6, 100 mM KCl, 20% sucrose, 20 mM bis-tris/10 mM HCl, 1 mM EDTA, 1 mM TCEP, 0.01% Triton X-100, 0.1 mg/mL tRNA, 0.01 mg/mL heparin, 0.1 mg/mL BSA, room temp 20 min (gel 4 C); FP: 0.25-1 nM FAM-RNA, 100 mM NaCl, 20 mM bis-tris/10 mM HCl, 1 mM TCEP, 5% glycerol, 1 mM EDTA, yeast tRNA, BSA; conditions: protein: recombinant; tags: His on Lsm8 and GST on Lsm6, removed by TEV; copies: 1;1;1;1;1;1;1; label: 5' 6-FAM
T1 sequence 1: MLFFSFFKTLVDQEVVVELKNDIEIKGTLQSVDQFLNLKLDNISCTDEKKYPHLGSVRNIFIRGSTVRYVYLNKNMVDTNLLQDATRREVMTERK
T1 sequence 2: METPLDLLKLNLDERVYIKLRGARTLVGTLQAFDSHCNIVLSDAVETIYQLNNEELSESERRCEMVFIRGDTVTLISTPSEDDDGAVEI
T1 sequence 3: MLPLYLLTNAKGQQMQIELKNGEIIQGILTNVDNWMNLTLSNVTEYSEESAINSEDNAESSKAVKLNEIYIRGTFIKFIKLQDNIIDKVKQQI
T1 sequence 4: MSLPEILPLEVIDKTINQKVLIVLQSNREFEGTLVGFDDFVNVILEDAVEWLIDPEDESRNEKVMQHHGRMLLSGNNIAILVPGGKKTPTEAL
T1 sequence 5: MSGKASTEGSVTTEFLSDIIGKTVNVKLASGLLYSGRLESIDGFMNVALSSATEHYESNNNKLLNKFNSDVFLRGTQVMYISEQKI
T1 sequence 6: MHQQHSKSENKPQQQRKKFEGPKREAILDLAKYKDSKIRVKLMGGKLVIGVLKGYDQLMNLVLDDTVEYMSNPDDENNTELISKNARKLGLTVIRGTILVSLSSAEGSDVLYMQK
T1 sequence 7: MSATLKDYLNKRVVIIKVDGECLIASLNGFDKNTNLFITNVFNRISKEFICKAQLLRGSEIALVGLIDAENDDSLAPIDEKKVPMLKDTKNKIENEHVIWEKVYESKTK

Lhp1 (yeast La protein) [2] = biological target: T2, Lhp1 (yeast La protein) (Saccharomyces cerevisiae, UniProt P33399 1-275); assay: fluorescence polarization; Hill 1.11; EMSA: 5 nM Cy3-U6, 100 mM KCl, 20% sucrose, 20 mM bis-tris/10 mM HCl, 1 mM EDTA, 1 mM TCEP, 0.01% Triton X-100, 0.1 mg/mL tRNA, 0.01 mg/mL heparin, 0.1 mg/mL BSA, room temp 20 min (gel 4 C); FP: 0.25-1 nM FAM-RNA, 100 mM NaCl, 20 mM bis-tris/10 mM HCl, 1 mM TCEP, 5% glycerol, 1 mM EDTA, yeast tRNA, BSA; conditions: protein: recombinant; tags: N-terminal His8-TEV; label: 5' 6-FAM
T2 sequence: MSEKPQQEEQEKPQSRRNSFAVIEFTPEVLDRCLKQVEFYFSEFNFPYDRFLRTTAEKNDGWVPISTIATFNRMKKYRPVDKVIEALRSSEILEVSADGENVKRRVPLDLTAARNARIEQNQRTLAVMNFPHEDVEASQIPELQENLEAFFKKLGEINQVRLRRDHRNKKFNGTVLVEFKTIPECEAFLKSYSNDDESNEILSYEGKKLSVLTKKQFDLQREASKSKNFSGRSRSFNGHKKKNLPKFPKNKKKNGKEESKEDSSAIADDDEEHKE

Lsm2-8 complex [3] = biological target: T1, Lsm2-8 complex; assay: fluorescence polarization; Hill 1.3; EMSA: 5 nM Cy3-U6, 100 mM KCl, 20% sucrose, 20 mM bis-tris/10 mM HCl, 1 mM EDTA, 1 mM TCEP, 0.01% Triton X-100, 0.1 mg/mL tRNA, 0.01 mg/mL heparin, 0.1 mg/mL BSA, room temp 20 min (gel 4 C); FP: 0.25-1 nM FAM-RNA, 100 mM NaCl, 20 mM bis-tris/10 mM HCl, 1 mM TCEP, 5% glycerol, 1 mM EDTA, yeast tRNA, BSA; conditions: protein: recombinant; tags: His on Lsm8 and GST on Lsm6, removed by TEV; copies: 1;1;1;1;1;1;1; label: 5' 6-FAM
Lhp1 (yeast La protein) [4] = biological target: T2, Lhp1 (yeast La protein); assay: fluorescence polarization; Hill 1.27; EMSA: 5 nM Cy3-U6, 100 mM KCl, 20% sucrose, 20 mM bis-tris/10 mM HCl, 1 mM EDTA, 1 mM TCEP, 0.01% Triton X-100, 0.1 mg/mL tRNA, 0.01 mg/mL heparin, 0.1 mg/mL BSA, room temp 20 min (gel 4 C); FP: 0.25-1 nM FAM-RNA, 100 mM NaCl, 20 mM bis-tris/10 mM HCl, 1 mM TCEP, 5% glycerol, 1 mM EDTA, yeast tRNA, BSA; conditions: protein: recombinant; tags: N-terminal His8-TEV; label: 5' 6-FAM
Lsm2-8 complex [5] = biological target: T1, Lsm2-8 complex; assay: fluorescence polarization; Hill 1.6; EMSA: 5 nM Cy3-U6, 100 mM KCl, 20% sucrose, 20 mM bis-tris/10 mM HCl, 1 mM EDTA, 1 mM TCEP, 0.01% Triton X-100, 0.1 mg/mL tRNA, 0.01 mg/mL heparin, 0.1 mg/mL BSA, room temp 20 min (gel 4 C); FP: 0.25-1 nM FAM-RNA, 100 mM NaCl, 20 mM bis-tris/10 mM HCl, 1 mM TCEP, 5% glycerol, 1 mM EDTA, yeast tRNA, BSA; conditions: protein: recombinant; tags: His on Lsm8 and GST on Lsm6, removed by TEV; copies: 1;1;1;1;1;1;1; label: 5' 6-FAM

B1: U6 95-112+1U 3'OH (ssRNA)
RNA: AGAGAUUUAUUUCGUUUUU
modifications: 2',3'-cis-diol end
Kd (Lsm2-8 complex [1]): 17 ± 1 nM | Kd (Lhp1 (yeast La protein) [2]): 29 ± 1 nM

B2: U6 95-112+1U 3'P (ssRNA)
RNA: AGAGAUUUAUUUCGUUUUU
modifications: 3' phosphate
Kd (Lsm2-8 complex [1]): 3 ± 1 nM

B3: U6 95-112 3'P (ssRNA)
RNA: AGAGAUUUAUUUCGUUUU
modifications: 3' phosphate
Kd (Lsm2-8 complex [3]): 10 ± 1 nM

B4: U6 95-112 3'OH (ssRNA)
RNA: AGAGAUUUAUUUCGUUUU
modifications: 2',3'-cis-diol end
Kd (Lhp1 (yeast La protein) [4]): 43 ± 1 nM | Kd (Lsm2-8 complex [5]): 85 ± 1 nM
